System: PKCδ
Experiment: Immunohistochemistry for PKCδ in corneal wounds in vivo
Set-up: species or system mouse
Conditions: rCAP37 250 ng/ml; sections at 6 hours
Method: Mice corneas were wounded using the AlgerBrush II and treated at 0 and 16 hours with vehicle (normal saline; (A-C)) or rCAP37 (250 ng/ml; (D-F)). Whole eye globes were enucleated at 6 hours (A, B, D, E), 16 hours (C, F), and 48 hours (H) post-wounding, and sections were stained for PKCδ. Representative images show constitutive staining for PKCδ in unwounded corneas (G). […] Pronounced staining for PKCδ was seen along the leading wound edge (↓) in CAP37-treated corneas at 6 hours (D, E) and 16 hours (F). […] Scale bars, 100 μm.
Immunohistochemistry: Whole mouse eyes were collected, fixed, embedded, and cut as previously described. Antigen retrieval was performed by treating sections with Rodent Decloaker (BioCare Medical, Concord, Calif.) and steaming them for 20 minutes before cooling with deionized water for 20 minutes. Sections were blocked for 30 minutes in Rodent Blocker M (BioCare Medical, Concord, Calif.), washed three times for 5 minutes per wash in deionized water, and blocked in peroxide block (Cell Marque, Rocklin, Calif.) for 10 minutes. Sections were then washed three times for 5 minutes in deionized water and incubated overnight at 4° C. with rabbit anti-PKCδ (4 μg/ml; Santa Cruz Biotechnology, Inc. Santa Cruz, Calif.). Sections incubated with rabbit IgG (Cell Signaling Technology, Danvers, Mass.) overnight at 4° C. served as controls for nonspecific staining. […]

B1: CAP37: cationic antimicrobial protein of Mr 37 kDa; recombinant CAP37 produced in human embryonic kidney (HEK) 293 cells (protein)
chain: IVGGRKARPRQFPFLASIQNQGRHFCGGALIHARFVMTAASCFQSQNPGVSTVVLGAYDLRRRERQSRQTFSISSMSENGYDPQQNLNDLMLLQLDREANLTSSVTILPLPLQNATVEAGTRCQVAGWGSQRSGGRLSRFPRFVNVTVTPEDQCRPNNVCTGVLTRRGGICNGDGGTPLVCEGLAHGVASFSLGPCGRGPDFFTRVALFRDWIDGVLNNPGP
- PKCδ staining of corneal sections, in words: strong staining for PKCδ

Reference: patent US11884710B2, “Peptide compounds and methods of use in wound healing” (priority 2013, dated 2024)
